# Publication PMC7714071, “Interaction of amyloid beta with humanin and acetylcholinesterase is modulated by ATP” (FEBS Open Bio, 2020)
# Columns and labels:
# A549 cells = test: MTT cell viability, A549; format: cell-based, human; conditions: AChE-ID media, 48 h, A549; Fig. 7A
# Experimental: (§1) Human NSCLC cell lines, A549 (ATCC CCL‐185) and H1299 (ATCC CRL‐5803), were purchased from the American Type Culture Collection (ATCC, Manassas, VA, USA). Cells were seeded as we reported earlier in 5 mL HyClone Dulbecco's modified Eagle's medium/nutrient mixture F‐12 (DMEM/F12) (GE Healthcare Life Sciences, Pittsburgh, PA, USA), supplemented with 10% Fetalgro bovine growth serum (FBS; RMBIO, Missoula, MT, USA), 50 U·mL^−1 penicillin, and […] streptomycin (Invitrogen, Life Technologies, Carlsbad, CA, USA) in 25‐cm^2 tissue culture flasks, and allowed to grow overnight in an incubator at 37 °C, 95% humidity, and 5% CO2. The cells were counted after trypan blue staining, with a hemocytometer.
# (§2) The 3‐(4,5‐dimethylthiazol‐2‐yl)‐2,5‐diphenyl‐tetrazolium bromide (MTT) reduction assay (Sigma‐Aldrich), used to measure cell viability, was carried out as we reported earlier. […] The absorbance was measured at 570 nm in a plate reader. […]
# (§3) Conditioned media were immunodepleted (ID) according to the methods previously described and our recently published report. […] The ID media were then carefully removed and analyzed for the presence of the target protein or peptide by ELISA. The same amount of protein (3 µL of 600 µg·mL^−1 total protein) of each sample was analyzed in the experiments. […]
# H1299 cells = test: MTT cell viability, H1299; format: cell-based, human; conditions: AChE-ID media, 48 h, H1299; Fig. 7B
# Experimental: as §1, §2, §3
# Aβ40 = conditions: decreased lag phase; cited from earlier work
# Source text: Almost all types of cells produce amyloid beta (Aβ), a peptide well recognized for its role in the development and progression of different stages of Alzheimer's disease (AD). The Aβ peptide is ~ 4 kDa and derived from the sequential processing of the higher molecular weight amyloid precursor protein by two membrane‐bound endoproteases, β‐ and γ‐secretase. Different C‐terminal Aβ heterogeneity results from processing by γ‐secretase, where Aβ40 represents the most abundant isoform (~ 90%) as compared to Aβ42 (~ 10%). Self‐assembled Aβ40/42 peptides into amyloid fib ... || Humanin (HN) is a secreted 21‐ to 24‐amino acid mitochondrial‐derived peptide. Certain amino acid residues in HN have been identified to be involved in different functions, including binding to Aβ [55, 56]. […] HN was identified previously as a binding partner of Aβ, likely modulating its aggregation pathways and counteracting its deleterious effects. […] The specific epitopes at the binding interface between HN and Aβ40 were identified, by proteolytic epitope excision and extraction in addition to affinity–mass spectrometric data analysis, to be HN (5–15) and Aβ (17–28). […] Inhibiting the 17–28 region of Aβ reduced aggregation of the neurotoxic amyloid fibrils and related cytotoxicity in SH‐SY5Y, a human neuroblastoma cell ... || (+ 1 further places)
# Aβ42 = conditions: cited from earlier work
# Source text: Almost all types of cells produce amyloid beta (Aβ), a peptide well recognized for its role in the development and progression of different stages of Alzheimer's disease (AD). The Aβ peptide is ~ 4 kDa and derived from the sequential processing of the higher molecular weight amyloid precursor protein by two membrane‐bound endoproteases, β‐ and γ‐secretase. Different C‐terminal Aβ heterogeneity results from processing by γ‐secretase, where Aβ40 represents the most abundant isoform (~ 90%) as compared to Aβ42 (~ 10%). Self‐assembled Aβ40/42 peptides into amyloid fib ... || Amino acid residues involved in direct interactions between HN and Aβ40 were identified previously by molecular modeling. The specific epitopes at the binding interface between HN and Aβ40 were identified, by proteolytic epitope excision and extraction in addition to affinity–mass spectrometric data analysis, to be HN (5–15) and Aβ (17–28). […] Inhibiting the 17–28 region of Aβ reduced aggregation of the neurotoxic amyloid fibrils and related cytotoxicity in SH‐SY5Y, a human neuroblastoma cell ... || Acetylcholinesterase (AChE) is an enzyme known for its role in terminating acetylcholine‐mediated neurotransmission at the synaptic cleft. The majority of the cortical AChE in the Alzheimer's brain is mainly associated with the amyloid core of senile plaques. […]
molecule,measurement,setting,value
acetylcholinesterase (protein) EGREDAELLVTVRGGRLRGIRLKTPGGPVSAFLGIPFAEPPMGPRRFLPPEPKQPWSGVVDATTFQSVCYQYVDTLYPGFEGTEMWNPNRELSEDCLYLNVWTPYPRPTSPTPVLVWIYGGGFYSGASSLDVYDGRFLVQAERTVLVSMNYRVGAFGFLALPGSREAPGNVGLLDQRLALQWVQENVAAFGGDPTSVTLFGESAGAASVGMHLLSPPSRGLFHRAVLQSGAPNGPWATVGMGEARRRATQLAHLVGCPPGGTGGNDTELVACLRTRPAQVLVNHEWHVLPQESVFRFSFVPVVDGDFLSDTPEALINAGDFHGLQVLVGVVKDEGSYFLVYGAPGFSKDNESLISRAEFLAGVRVGVPQVSDLAAEAVVLHYTDWLHPEDPARLREALSDVVGDHNVVCPVAQLAGRLAAQGARVYAYVFEHRASTLSWPLWMGVPHGYEIEFIFGIPLDPSRNYTAEEKIFAQRLMRYWANFARTGDPNEPRDPKAPQWPPYTAGAQQYVSLDLRPLEVRRGLRAQACAFWNRFLPKLLSATDTLDEAERQWKAEFHRWSSYMVHWKNQFDHYSKQDRCSDL,increase in cell viability upon AChE immunodepletion,A549 cells,~ 1.45 fold
same,effect of AChE immunodepletion on cell viability,H1299 cells,no effect
same,effect on Aβ40 aggregation,Aβ40,significantly accelerated the aggregation
same,effect on Aβ42 oligomeric formation,Aβ42,increases Aβ42 oligomeric formation
